The text below walks through data of patent US20190010227A1 (WELSON PHARMACEUTICALS, published 2019).

Positions count from the first letter of the chain named.

B1: Mouse monoclonal antibody LA22 (antibody, V domains shown)
VH: EVQLVESGGGLVQPGESLKLSCESNEYEFPSHDMSWVRKTPEERLELVAAITSDGISTYYPDTMERRFLISRDNTKKTLYLQMSSLRSEDTALYYCSRHDWDEGFASWGQGTLVTVSA
VL: DVVMTQTPLSLPVSLGDQASISCRSSQSLVHSNGNTYLHWYLQKPGQSPKLLIYKVSNRFSGVPDRFSGSGSGTDFTLKISRVEAEDLGIYFCSQSSHVPPAFGGGTKLEIK
notes: Mouse hybridoma antibody (ATCC deposit, US 5,459,061); the mouse constant regions are not; also called mLA22; mouse LA22
B2: Humanized LA22 (H1 + h2) (antibody, human IgG1, V domains shown)
VH: EVQLVESGGGLVQPGGSLRLSCESNEYEFPSHDMSWVRQAPGKGLEWVSAITSDGISTYYPDTMERRFTISRDNSKNTLYLQMNSLRAEDTAVYYCARHDWDEGFASWGQGTLVTVSS
VL: B1 VL with T7S, S14T, D17Q, Q18P, L42Q, K44R, K50R, L88V
notes: Human IgG1 / kappa constant regions; also called H1-LA22 / h2-LA22
B3: Humanized LA22 (H2 + h2) (antibody, human IgG1, V domains shown)
VH: B2 VH with S75T, N77K
VL: B1 VL with T7S, S14T, D17Q, Q18P, L42Q, K44R, K50R, L88V
notes: Human IgG1 / kappa constant regions; also called H2-LA22 / h2-LA22
B4: Humanized LA22 (H3 + h2) (antibody, V domains shown)
VH: B2 VH with E23A, A40T, N84S
VL: B1 VL with T7S, S14T, D17Q, Q18P, L42Q, K44R, K50R, L88V
notes: also called hLA22; hLA22 h2H3
B5: Humanized LA22 (H0 + h2) (antibody, human IgG1, V domains shown)
VH: B2 VH with E23A, S24A, N25S
VL: B1 VL with T7S, S14T, D17Q, Q18P, L42Q, K44R, K50R, L88V
notes: Human IgG1 / kappa constant regions; also called HO-LA22 / h2-LA22
B6: Humanized LA22 (H4 + h2) (antibody, human IgG1, V domains shown)
VH: B2 VH with E23A, A40T, G44R, N84S
VL: B1 VL with T7S, S14T, D17Q, Q18P, L42Q, K44R, K50R, L88V
notes: Human IgG1 / kappa constant regions; also called H4-LA22 / h2-LA22

For the first assay, the target named is T1, ECD of rec. EGFR (human, UniProt P00533 25-645).
T1 construct: extracellular domain; also called human epidermal factor receptor (EGFR)
In words: SPR (BIAcore), chip coated with ECD of rec. EGFR. The source says: 1. Biacore assay. To test the affinity between human epidermal factor receptor (EGFR) and the present invention of humanized anti-EGFR antibody using BIAcore system which is based on the surface plasmon resonance technique, the chip was coated with ECD of rec. EGFR.
For B1, the affinity, expressed as Kd, was 2 nM; the koff (as a rule, the rate constant with which the complex falls apart) is 4.3e-05 s⁻¹; the on-rate (kon) (commonly the second-order rate constant of association) came to 22000 M⁻¹ s⁻¹.

Take B2: the Kd (usually the free concentration of one partner at which half of the binding sites on the other are occupied at equilibrium, for simple one-to-one binding) amounted to 14 nM; the koff was 0.000146 s⁻¹; the kon amounted to 10400 M⁻¹ s⁻¹.

Turning to B3, binding was characterised by a dissociation constant (Kd) of 12 nM, the dissociation rate constant (koff) was 7.7e-05 s⁻¹ and the kon turned out to be 6400 M⁻¹ s⁻¹.

In the case of B4, binding was characterised by a dissociation constant (Kd) of 2.3 nM, the koff was determined as 3.8e-05 s⁻¹ and the kon stood at 16400 M⁻¹ s⁻¹.

For B5, the Kd turned out to be 13.2 nM, the koff was 6.9e-05 s⁻¹ and the kon came out at 5200 M⁻¹ s⁻¹.

In the case of B6, binding was characterised by a dissociation constant (Kd) of 15.4 nM, the off-rate (koff) came out at 0.000188 s⁻¹ and the kon came out at 12200 M⁻¹ s⁻¹.

In the next assay the target is T2, EGFR on A431 cell surface (human, UniProt P00533 25-1210).
T2 construct: whole, on cells; also called EGFR expressed on A431 cell surface; EGFR on live A431 cell surface
In words: cell-based ELISA on A431 cells, HRP-conjugated goat anti-human IgG, TMB, OD450. Here is the method:
(§1) 3. Cell ELISA assay A431 cells were seeded at 20,000 cells/well of 96-well plate in DMEM-10% FBS and incubated at 37° C. 5% CO₂. 24 hours later, discard the medium. After two washes with PBS and blocking with 5% skim-milk/PBS for 1 h, wells were incubated with different concentration of mLA22 and hLA22 in 5% skim-milk-PBS for another one hour. After two washes with PBS, wells were then incubated with HRP-conjugated goat anti-mouse IgG secondary antibodies or HRP-conjugated goat anti-human IgG secondary antibodies (Jackson Lab) in 5% skim-milk-PBS for 1 h at room temperature. After washes with PBS, HRP substrate 3, 3′, 5, 5′-tetramethylbenzidine (TMB) solution was added. The reaction was stopped with stop solution (0.1M […]) and absorbance was measured at 450 nm with a microplate reader.
Background: An ELISA detects its analyte on a solid surface through an enzyme-linked reagent.
Consider B4, for which the concentration giving a half-maximal response (EC50 (read off the curve)) – broadly, the concentration needed to bring the measured effect to its halfway point – is about 1 µg/mL.

The target in the next assay is T2, EGFR on A431 cell surface. Briefly: cell-based ELISA on A431 cells, HRP-conjugated goat anti-mouse IgG, TMB, OD450. On the procedure:
as §1
B1: the “EC50 (read off the curve)” value is about 1 µg/mL.
